Changes are numbered by the printed parent chain.
How the values were obtained:
Test in all cases: BLI
Conditions in all cases: both partners purified
fHbp mutant 0015 = molecular target: T1, fHbp mutant 0015 (Neisseria meningitidis, fHbp v1.1 mutant, point mutant)
T1 chain: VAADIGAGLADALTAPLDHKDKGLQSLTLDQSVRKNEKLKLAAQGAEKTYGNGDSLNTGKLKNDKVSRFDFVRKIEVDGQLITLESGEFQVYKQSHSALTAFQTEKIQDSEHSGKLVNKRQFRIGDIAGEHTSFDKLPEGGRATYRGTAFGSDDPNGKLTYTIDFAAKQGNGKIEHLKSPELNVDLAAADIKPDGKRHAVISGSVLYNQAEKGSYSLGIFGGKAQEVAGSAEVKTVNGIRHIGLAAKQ

[1] = molecular target: T2, factor H binding protein variant 3.28 (Neisseria meningitidis, fHbp variant …)
T2 construct: also called fHbp v3.28; v3.28 Control (0002)
T2 chain: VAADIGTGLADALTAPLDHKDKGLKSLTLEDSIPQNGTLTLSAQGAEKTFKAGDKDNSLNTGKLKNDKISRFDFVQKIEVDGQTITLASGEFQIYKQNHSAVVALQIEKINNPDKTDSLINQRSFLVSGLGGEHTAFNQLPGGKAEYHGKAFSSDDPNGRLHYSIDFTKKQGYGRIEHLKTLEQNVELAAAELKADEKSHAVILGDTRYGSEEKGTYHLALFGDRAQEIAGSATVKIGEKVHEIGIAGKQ

fHbp mutant 0022 = molecular target: T3, fHbp mutant 0022 (Neisseria meningitidis, fHbp v3.28 …, point mutant)
T3 chain: T2 chain with G210N, E212A, T216S

[2] = molecular target: T4, factor H binding protein variant 1.1 (Neisseria meningitidis serogroup B …, UniProt Q9JXV4)
T4 construct: also called fHbp v1.1; v1.1 Control (0001)

fHbp mutant 0018 = molecular target: T5, fHbp mutant 0018 (Neisseria meningitidis, fHbp v1.1 mutant, point mutant)
T5 chain: T1 chain with K38T, K40T, A42S, L116M, N118A

fHbp mutant 0012 = molecular target: T6, fHbp mutant 0012 (Neisseria meningitidis, fHbp v1.1 mutant, point mutant)
T6 chain: T1 chain with K106Q, L116M, N118A, P155A, N156G

fHbp mutant 0014 = molecular target: T7, fHbp mutant 0014 (Neisseria meningitidis, fHbp v1.1 mutant, point mutant)
T7 chain: T1 chain with V72I, K74Q, K106Q, L116M, N118A

fHbp m000019 = molecular target: T8, fHbp m000019 (Neisseria meningitidis, fHbp v1.1 …, point mutant)
T8 chain: T1 chain with K38T, K40T, A42S, P155A, N156G

fHbp mutant 0024 = molecular target: T9, fHbp mutant 0024 (Neisseria meningitidis, fHbp v3.28 …, point mutant)
T9 chain: T2 chain with E239N, K240G, V241I, E243H

B1: mAb 4B3 (human) (antibody, V domains shown)
VH: QVQLVQSGGGLVKPGGSLRLSCAASGFPFSSYYMSWIRQAPGKGLEWVSDINNSGNVKEYADFVKGRLTISRDNVKNSMYLHMNSLRVEDTAVYYCARNRGRFDVWGQGTLVTVSA
VL: EIVMTQSPGTLSLSPGETATLSCRASQMISSPFLAWYQQRRGQAPRLLIYGASTRATDTPDRFRGSGSGTDFILTISRLEPEDFAVYYCQYYDDSPFTFGQGTKLEIK
notes: also called 4B3-2; source: Expi293, purified (MabSelect SuRe, SEC); copies: 2 + 2
fHbp mutant 0015
  Kd: 3.57 nM
  koff: 0.00129 s⁻¹
  kon: 360000 ± 5970 M⁻¹ s⁻¹
[1]
  Kd: 5.15 nM
  koff: 0.000542 s⁻¹
  kon: 105000 ± 1620 M⁻¹ s⁻¹
fHbp mutant 0022
  Kd: 1.77 nM
  koff: 0.000836 s⁻¹
  kon: 473200 ± 1420 M⁻¹ s⁻¹
[2]
  Kd: 1.33 nM
  koff: 0.00103 s⁻¹
  kon: 767900 ± 4960 M⁻¹ s⁻¹
fHbp mutant 0018
  Kd: 2.36 nM
  koff: 0.00101 s⁻¹
  kon: 426800 ± 2190 M⁻¹ s⁻¹
fHbp mutant 0012
  Kd: 1.39 nM
  koff: 0.00126 s⁻¹
  kon: 906000 ± 2710 M⁻¹ s⁻¹
fHbp mutant 0014
  Kd: 1.57 nM
  koff: 0.00116 s⁻¹
  kon: 736500 ± 3130 M⁻¹ s⁻¹
fHbp m000019
  Kd: 5.53 nM
  koff: 0.00124 s⁻¹
  kon: 224400 ± 1040 M⁻¹ s⁻¹
fHbp mutant 0024
  Kd: 1.48 nM
  koff: 0.000969 s⁻¹
  kon: 655000 ± 3130 M⁻¹ s⁻¹

B2: mAb 1E6 (human) (antibody, V domains shown)
VH: EVQLVQSGAEVKKPGSSVKVSCKASGGTVIDYPITWVRQAPGQGLEWVGGFVPLFRTSNYGQKFQGRVTITADKSTSTASMELNSLTSEDTAIYYCARGDTAMGPFDYWGQGTLVTVSS
VL: SYVLTQPPSLSVAPGKTATLTCGGNNIAGKTVHWYQQRPGQAPVLVISYDSDRPSGIPERFSGSNSANTATLTISRVEAGDEADYYCQVWDRNSDHWVFGGGTKLTVL
notes: source: Expi293, purified (MabSelect SuRe, SEC); copies: 2 + 2
fHbp mutant 0015
  Kd: 1.42 nM
  koff: 0.000862 s⁻¹
  kon: 609000 ± 6530 M⁻¹ s⁻¹
[1]
  Kd: 1.76 nM
  koff: 0.000238 s⁻¹
  kon: 135000 ± 961 M⁻¹ s⁻¹
fHbp mutant 0022
  Kd: 0.601 nM
  koff: 0.0003 s⁻¹
  kon: 498300 ± 1660 M⁻¹ s⁻¹
[2]
  Kd: 3.4 nM
  koff: 0.00447 s⁻¹
  kon: 1.32e+06 ± 14800 M⁻¹ s⁻¹
fHbp mutant 0018
  Kd: 1.04 nM
  koff: 0.000558 s⁻¹
  kon: 538300 ± 3080 M⁻¹ s⁻¹
fHbp mutant 0012
  Kd: 3.52 nM
  koff: 0.00661 s⁻¹
  kon: 1.88e+06 ± 58600 M⁻¹ s⁻¹
fHbp mutant 0014
  Kd: 2.11 nM
  koff: 0.00204 s⁻¹
  kon: 964100 ± 5740 M⁻¹ s⁻¹
fHbp m000019
  Kd: 2.19 nM
  koff: 0.00153 s⁻¹
  kon: 698800 ± 3080 M⁻¹ s⁻¹
fHbp mutant 0024
  Kd: 0.369 nM
  koff: 0.000271 s⁻¹
  kon: 734700 ± 2210 M⁻¹ s⁻¹
